In article PMC5663884, “Compositional and expression analyses of the glideosome during the Plasmodium life cycle reveal an additional myosin light chain required for maximum motility” (The Journal of Biological Chemistry, 2017):
Residues, ends and D or L forms follow the SMILES beside them. *: point of attachment. Biotin = O=C1N[C@H]2[C@H](CS[C@H]2CCCCC(=O)*)N1

What was measured:
MTIP = conditions: 3D7 schizont or merozoite lysate, PfELC-specific antibodies
[1] = circular dichroism of recombinant PfELC; format: physicochemical
Protocol: Far-UV CD spectra were recorded on a Jasco J-815 spectropolarimeter fitted with a cell holder thermostatted by a CDF-426S Peltier unit. CD measurements were made at a protein concentration of 10 μM PfELC in 25 mM Tris-HCl, pH 8.0, 50 mM NaCl using fused silica cuvettes with a 1-mm path length (Hellma). All spectra were recorded with 0.1 nm resolution and baseline-corrected by subtraction of the buffer spectrum. Secondary structure content was estimated using methods described by Sreerama and Woody ([62]).

MyoA = test: immunoprecipitation with GFP-specific antibodies, Western blot: MyoA-GFP; format: binding, P. falciparum; conditions: schizont lysate, probed with anti-PfELC antibodies
Protocol: (§1) Parasite lysates were precleared by incubation with blocked agarose beads for 1 h, and then the supernatant was incubated with GFP-Trap agarose beads for 2 h at 4 °C with end-over-end rotation. […] Finally, the beads were resuspended in 5 volumes of 2× SDS-PAGE sample buffer and boiled for 5 min before fractionation of the proteins by SDS-PAGE.

MyoB complex = test: immunoprecipitation with GFP-specific antibodies, Western blot: MyoB-GFP; format: binding, P. falciparum; conditions: schizont lysate, probed with anti-PfELC antibodies
Protocol: as §1

PfELC = target: T1, PfELC (Plasmodium falciparum, UniProt Q8IJM4); test: biolayer interferometry binding of PfELC to immobilized MyoA neck peptides; parameters: species or system P. falciparum; conditions: 25 °C, pH 8.0, PfELC 0.04–5 μM
T1 construct: His tag (N); made in house; host or cells: E. coli BL21 (DE3)
Protocol: Overlapping peptides representing amino acids Gln^770–Ala^787, Ala^786–Ser^803, and Ile^801–Gln^818 of the PfMyoA neck were synthesized by Mimotopes with biotin at the N terminus. […] The C termini of the peptides were capped with an amide to remove unnatural charge, apart from peptide 801–818, which was left as a free acid.
P. falciparum ELC binding to peptides was analyzed by biolayer interferometry using the Octet Red system (ForteBio) at 25 °C in 96-well microplates, as described previously ([63]). All assays were performed in 100 mM Tris-HCl, pH 8.0, containing 0.005% (v/v) Tween 20, according to the manufacturer's instructions. A baseline was established over 4 min, and biotinylated peptides (0.4 μg/ml) were loaded onto streptavidin sensors for 10 min. The sensors were washed for 4 min and then incubated with PfELC at different concentrations (0.04–5 μM) for 800 s. The data were analyzed to calculate a dissociation constant (Kd) using non-linear regression with a one-site binding model and a least-squares fit (GraphPad Prism version 6).

[2] = target: T2, Recombinant His-tagged PfELC (E. coli) (P. falciparum, UniProt Q8IJM4 1-134); test: BLI; conditions: both partners purified
T2 construct: also called His-PfELC; His-ELC; source: E. coli BL21 (DE3), purified (nickel-nitrilotriacetic acid-agarose)
T2 sequence: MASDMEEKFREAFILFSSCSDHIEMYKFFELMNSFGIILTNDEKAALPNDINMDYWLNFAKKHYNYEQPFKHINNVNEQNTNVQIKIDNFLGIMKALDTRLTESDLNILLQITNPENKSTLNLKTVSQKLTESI

actin = test: optical tweezer-based single-molecule acto-MyoA interaction; format: biochemical
Protocol: MyoA was expressed in a wheat germ cell-free protein synthesis system (ENDEXT® Technology, CellFree Sciences) ([64]). Recombinant plasmid DNA using recodonized template DNA was amplified using specific primers and cloned into the vector pEU-E01G-TEV-N1 to express N-terminal GST-tagged protein. For the in vitro transcription reaction, 2 μg of DNA was added to a transcription premix (11.5 μl of nuclease-free water, 1× transcription buffer, 2.5 mM NTP mix, 1 unit/μl RNase inhibitor, 1 unit/μl SP6 RNA polymerase) in a total volume of 20 μl and incubated at 37 °C for 6 h, according to the manufacturer's instructions. The quality of mRNA produced was monitored by gel electrophoresis. The bilayer reaction system (CellFree Sciences) was used to translate mRNA into protein. mRNA (10 μl) was added to 10 μl of wheat germ extract (WEPRO® 1240) supplemented with 40 ng/μl creatine kinase and carefully transferred directly below the SUB-AMIX solution (0.3 mM of each L-amino acid, 100 mM potassium acetate, 2.7 mM magnesium acetate, 16 mM disodium creatine phosphate, 0.4 mM spermidine, 1.2 mM ATP, 0.25 mM GTP, 4 mM dithiothreitol, and 30 mM HEPES-KOH (pH 7.8)) and incubated for 20 h at 15–16 °C. Soluble GST-tagged MyoA was purified using glutathione-Sepharose beads (GE Healthcare); supernatant was incubated with the resin for 2 h at 4 °C, followed by extensive washing with 20 mM Tris-HCl, pH 8.0, 250 mM NaCl, 0.5 mM TCEP. The beads were resuspended in 3 volumes of 20 mM Tris-HCl, pH 8.0, 100 mM NaCl, 10 mM reduced glutathione to elute the GST-tagged protein. This was followed by buffer exchange into PBS on a PD10 column (GE Healthcare).
The optical tweezer assay, developed to measure the force and movement produced by individual myosin molecules interacting with an actin filament, was used in the well-established three-bead format with the experimental conditions as described ([65][–][67]). The experimental apparatus is based around a Zeiss inverted microscope, and experiments were performed in a flow-cell chamber created using a microscope slide and coverslip. […] Interactions between the surface-bound MyoA and the actin filament were recorded by monitoring movement of the beads held in the optical tweezers using two 4-quadrant, photodiode detectors. […] Individual events were then automatically detected by measuring changes in amplitude of the imposed triangular oscillation, and event amplitudes were histogrammed. Data were acquired and saved to computer memory using custom software, with a sampling rate of 10 kHz, and later analyzed using IgorPro software (WaveMetrics Inc., Lake Oswego, OR). Individual acto-MyoA force-producing events were identified as described previously ([65]), and the MyoA power-stroke amplitude and kinetics were analyzed by histogram analysis of the data.

[3] = far-UV CD, 10 μM PfELC, 25 mM Tris-HCl pH 8.0, 50 mM NaCl

essential light chain [PfELC]
presence in anti-MTIP immunoprecipitate (MTIP): present with MTIP in the same complex | effect of calcium on near- or far-UV CD spectrum ([1]; 1 mM calcium ions): no effect on either the near- or far-UV spectrum | turn content [1, 3]: 20% | α helix content [1, 3]: 32% | β sheet content [1, 3]: 17% | presence in MyoA-GFP immunoprecipitate (MyoA): a 14-kDa protein associated with MyoA in the glideosome complex | presence in MyoB-GFP immunoprecipitate (MyoB complex): none was detected associated with the MyoB complex

peptide 770–787: biotinylated PfMyoA neck peptide Gln770–Ala787 with SGSG linker, C-terminal amide (Biotin-SGSGQREKLVEWENCVSVIEAA-NH2; SMILES CC[C@H](C)[C@H](NC(=O)[C@@H](NC(=O)[C@H](CO)NC(=O)[C@@H](NC(=O)[C@H](CS)NC(=O)[C@H](CC(N)=O)NC(=O)[C@H](CCC(=O)O)NC(=O)[C@H](Cc1c[nH]c2ccccc12)NC(=O)[C@H](CCC(=O)O)NC(=O)[C@@H](NC(=O)[C@H](CC(C)C)NC(=O)[C@H](CCCCN)NC(=O)[C@H](CCC(=O)O)NC(=O)[C@H](CCCNC(=N)N)NC(=O)[C@H](CCC(N)=O)NC(=O)CNC(=O)[C@H](CO)NC(=O)CNC(=O)[C@H](CO)NC(=O)CCCC[C@@H]1SC[C@@H]2NC(=O)N[C@@H]21)C(C)C)C(C)C)C(C)C)C(=O)N[C@@H](CCC(=O)O)C(=O)N[C@@H](C)C(=O)N[C@@H](C)C(N)=O; UniProt Q8IDR3 770-787, looked up, fragment)
binding to PfELC (in words) (PfELC): no observable binding | binding to PfELC (in words) (PfELC; listed as MyoA 770–787): no binding

CC[C@H](C)[C@H](NC(=O)[C@H](C)NC(=O)[C@H](C)NC(=O)CNC(=O)[C@H](CO)NC(=O)CNC(=O)[C@H](CO)NC(=O)CCCC[C@@H]1SC[C@@H]2NC(=O)N[C@@H]21)C(=O)N[C@@H](CC(C)C)C(=O)N[C@@H](CCCCN)C(=O)N[C@@H](Cc1c[nH]cn1)C(=O)N[C@@H](CCCCN)C(=O)N[C@@H](Cc1ccc(O)cc1)C(=O)N[C@@H](CCCCN)C(=O)N[C@@H](CCC(N)=O)C(=O)N[C@@H](CCCCN)C(=O)N[C@H](C(=O)N[C@@H](CC(N)=O)C(=O)N[C@@H](CCCCN)C(=O)N[C@@H](CC(N)=O)C(=O)N[C@H](C(=O)N1CCC[C@H]1C(=O)N[C@@H](CO)C(N)=O)[C@@H](C)CC)C(C)C [786–803] (Biotin-SGSGAAILKHKYKQKVNKNIPS-NH2)
binding to PfELC (in words) (PfELC): binds strongly to PfELC

B1: Biotinylated PfMyoA neck peptide 786–803 (peptide)
peptide: Biotin-SGSGAAILKHKYKQKVNKNIPS-NH2
SMILES: CC[C@H](C)[C@H](NC(=O)[C@H](C)NC(=O)[C@H](C)NC(=O)CNC(=O)[C@H](CO)NC(=O)CNC(=O)[C@H](CO)NC(=O)CCCC[C@@H]1SC[C@@H]2NC(=O)N[C@@H]21)C(=O)N[C@@H](CC(C)C)C(=O)N[C@@H](CCCCN)C(=O)N[C@@H](Cc1c[nH]cn1)C(=O)N[C@@H](CCCCN)C(=O)N[C@@H](Cc1ccc(O)cc1)C(=O)N[C@@H](CCCCN)C(=O)N[C@@H](CCC(N)=O)C(=O)N[C@@H](CCCCN)C(=O)N[C@H](C(=O)N[C@@H](CC(N)=O)C(=O)N[C@@H](CCCCN)C(=O)N[C@@H](CC(N)=O)C(=O)N[C@H](C(=O)N1CCC[C@H]1C(=O)N[C@@H](CO)C(N)=O)[C@@H](C)CC)C(C)C
notes: source: synthetic peptide (Mimotopes)
Kd [2]: 480 nM

B2: Myosin A (protein)
chain: MAVTNEEIKTASKIVRRVSNVEAFDKSGSVFKGYQIWTDISPTIENDPNIMFVKCVVQQGSKKEKLTVVQIDPPGTGTPYDIDPTHAWNCNSQVDPMSFGDIGLLNHTNIPCVLDFLKHRYLKNQIYTTAVPLIVAINPYKDLGNTTNEWIRRYRDTADHTKLPPHVFTCAREALSNLHGVNKSQTIIVSGESGAGKTEATKQIMRYFASSKSGNMDLRIQTAIMAANPVLEAFGNAKTIRNNNSSRFGRFMQLVISHEGGIRYGSVVAFLLEKSRIITQDDNERSYHIFYQFLKGANSTMKSKFGLKGVTEYKLLNPNSTEVSGVDDVKDFEEVIESLKNMELSESDIEVIFSIVAGILTLGNVRLIEKQEAGLSDAAAIMDEDMGVFNKACELMYLDPELIKREILIKVTVAGGTKIEGRWNKNDAEVLKSSLCKAMYEKLFLWIIRHLNSRIEPEGGFKTFMGMLDIFGFEVFKNNSLEQLFINITNEMLQKNFVDIVFERESKLYKDEGISTAELKYTSNKEVINVLCEKGKSVLSYLEDQCLAPGGTDEKFVSSCATNLKENNKFTPAKVASNKNFIIQHTIGPIQYCAESFLLKNKDVLRGDLVEVIKDSPNPIVQQLFEGQVIEKGKIAKGSLIGSQFLNQLTSLMNLINSTEPHFIRCIKPNENKKPLEWCEPKILIQLHALSILEALVLRQLGYSYRRTFEEFLYQYKFVDIAAAEDSSVENQNKCVNILKLSGLSESMYKIGKSMVFLKQEGAKILTKIQREKLVEWENCVSVIEAAILKHKYKQKVNKNIPSLLRVQAHIRKKMVAQ
modifications: left off: GST, N-terminal, kept
notes: GST-tagged PfMyoA expressed in wheat germ cell-free system
rate constant of event lifetimes (single-exponential least-square fit) (actin; 0.3 μM Mg·ATP): 6.9 s⁻¹ | rate constant of event lifetimes (single-exponential least-square fit) (actin; 8 μM Mg·ATP): 53 s⁻¹ | second-order rate constant for Mg·ATP binding and dissociating the acto-MyoA rigor complex (actin; from event lifetimes at 0.3 and 8 μM ATP): ~1.5e+07 M⁻¹ s⁻¹ | working stroke (power stroke) (actin; shift in mean position of event distribution, 244 acto-MyoA binding events, 2 μM ATP): 3 nm

B3: Biotinylated PfMyoA neck peptide 801–818 (peptide)
peptide: Biotin-SGSGIPSLLRVQAHIRKKMVAQ-OH
SMILES: CC[C@H](C)[C@H](NC(=O)[C@H](Cc1c[nH]cn1)NC(=O)[C@H](C)NC(=O)[C@H](CCC(N)=O)NC(=O)[C@@H](NC(=O)[C@H](CCCNC(=N)N)NC(=O)[C@H](CC(C)C)NC(=O)[C@H](CC(C)C)NC(=O)[C@H](CO)NC(=O)[C@@H]1CCCN1C(=O)[C@@H](NC(=O)CNC(=O)[C@H](CO)NC(=O)CNC(=O)[C@H](CO)NC(=O)CCCC[C@@H]1SC[C@@H]2NC(=O)N[C@@H]21)[C@@H](C)CC)C(C)C)C(=O)N[C@@H](CCCNC(=N)N)C(=O)N[C@@H](CCCCN)C(=O)N[C@@H](CCCCN)C(=O)N[C@@H](CCSC)C(=O)N[C@H](C(=O)N[C@@H](C)C(=O)N[C@@H](CCC(N)=O)C(=O)O)C(C)C
notes: as for B1
Kd [2]: 320 nM
